From article PMC6162318 come the findings set out here.

As usually defined, the stoichiometry N is a count of units in the complex or per binding partner.

The target of the test is ELIC-α1GABAAR chimera (Erwinia chrysanthemi | human) (UniProt P0C7B7). Description: crystal structure.

Substance “ELIC-α1GABAAR chimera (from UniProt P0C7B7 1-199) (receptor)” yielded a stoichiometry N of 5.
